Experimental data as given in paper PMC6923591.

How the values were obtained:
[1] = target: Ptpn6 Y208N C-SH2 domain (recombinant C-terminal SH2 domain of Ptpn6/SHP-1 with Y208N); test: ITC
[2] = target: Ptpn6 wt C-SH2 domain (recombinant C-terminal SH2 domain of Ptpn6/SHP-1); test: ITC

Kd [1]: 10.4 µM
Kd [2]: 20.1 µM
Substance: FcγR2b phosphopeptide
